Blank lines part the entries; values can stand above or below the binder they belong to.
Columns and labels:
[1] = target: human 4-1BB on transfected HT1080 NF-kB-luciferase reporter cells (human, UniProt Q07011 24-255); test: cell-based or functional assay
[2] = target: T1, biotinylated human 4-1BB (bio.h4-1BB) (human, UniProt Q07011 24-186, limits assumed, biotinylated (site not stated)); test: SPR (ProteOn XPR36), bio.h4-1BB on NLC chip, MpA analyte; mean of triplicate; apparent affinity (bivalent)
T1 construct: also called CD137
T1 sequence (Q07011 24-186 limits assumed): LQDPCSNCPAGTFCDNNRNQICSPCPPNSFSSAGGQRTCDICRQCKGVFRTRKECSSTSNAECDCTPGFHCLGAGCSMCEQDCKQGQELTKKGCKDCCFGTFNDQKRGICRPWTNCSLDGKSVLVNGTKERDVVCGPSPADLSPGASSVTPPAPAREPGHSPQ
Procedure: (§1) ProteOn setup for MpA binding to 4-1BB of different species: SPR measurements were performed using a ProteOn XPR36 instrument (BioRad). The running buffer was PBS pH 7.4 containing 0.005% Tween 20® (PBST). The bio.h4-1BB, bio.c4-1BB and bio.m4-1BB were immobilized on NLC chips (BioRad) to a level of 320 RU. The binding of MpA to 4-1BB was measured by injecting MpA in a serial dilution of 30, 10, 3.3, 1.1 and 0.3 nM with an association of 180 s and dissociation of 1800 s using a constant flow of 100 μl/min (see Table 3). The measurement was repeated three times and the targets were regenerated between the individual measurements using 10 mM glycine pH 2 and 124 mM H₃PO₄. The signals were double referenced against the running buffer (PBST) treated control lane of L1 and A6. h4-1BB, c-4-1BB, and m4-1BB refer to human, cynomolgus, and mouse orthologs of 4-1BB, respectively.

[3] = target: T2, human fibroblast activation protein (hFAP) (human, UniProt Q12884 26-760, limits assumed); test: SPR (ProteOn XPR36), hFAP on GLC chip, MpA analyte, 1:1 Langmuir fit; mean of duplicate
T2 construct: Recombinant soluble protein; also called human FAP; rhFAP
Procedure: (§2) ProteOn setup for MpA binding to FAP of different species: SPR measurements were performed using a ProteOn XPR36 instrument (BioRad). The running buffer was PBS pH 7.4 containing 0.005% Tween 200 (PBST). hFAP (human FAP), cFAP (cynomolgus FAP) and mFAP (mouse FAP) were immobilized on a GLC chip (BioRad) at pH 5.3 to a level of 2000 RU, 1700 RU and 5000 RU, respectively. The interaction of FAP and MpA was measured by applying the MpA molecule as titration (see Table 2).
Two independent measurements were conducted to detect the binding of MpA to hFAP. The targets were regenerated using 10 mM glycine pH 2 and 124 mM H₃PO₄. The signals were double referenced against the PBST treated control lane of L1 and A6. The 1:1 Langmuir model was used for the fitting.

[4] = target: T3, human 4-1BB on primary human CD8 T cells (human, UniProt Q07011 24-255); test: cell-based or functional assay
T3 sequence (Q07011 24-255 limits assumed): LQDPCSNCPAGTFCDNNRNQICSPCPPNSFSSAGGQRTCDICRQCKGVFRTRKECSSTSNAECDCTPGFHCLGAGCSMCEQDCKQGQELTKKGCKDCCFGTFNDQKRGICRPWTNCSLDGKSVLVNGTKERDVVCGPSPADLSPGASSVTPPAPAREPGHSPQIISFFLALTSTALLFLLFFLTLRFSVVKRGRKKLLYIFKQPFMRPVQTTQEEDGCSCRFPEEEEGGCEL

[5] = target: T3, human 4-1BB on primary human CD8 T cells; test: cell-based or functional assay; remark: listed apart in the source
[6] = target: mouse FAP (mFAP) (mouse, UniProt P97321 26-761, limits assumed); test: SPR (ProteOn XPR36), mFAP on GLC chip, MpA as analyte
mouse FAP (mFAP), sequence (P97321 26-761 limits assumed): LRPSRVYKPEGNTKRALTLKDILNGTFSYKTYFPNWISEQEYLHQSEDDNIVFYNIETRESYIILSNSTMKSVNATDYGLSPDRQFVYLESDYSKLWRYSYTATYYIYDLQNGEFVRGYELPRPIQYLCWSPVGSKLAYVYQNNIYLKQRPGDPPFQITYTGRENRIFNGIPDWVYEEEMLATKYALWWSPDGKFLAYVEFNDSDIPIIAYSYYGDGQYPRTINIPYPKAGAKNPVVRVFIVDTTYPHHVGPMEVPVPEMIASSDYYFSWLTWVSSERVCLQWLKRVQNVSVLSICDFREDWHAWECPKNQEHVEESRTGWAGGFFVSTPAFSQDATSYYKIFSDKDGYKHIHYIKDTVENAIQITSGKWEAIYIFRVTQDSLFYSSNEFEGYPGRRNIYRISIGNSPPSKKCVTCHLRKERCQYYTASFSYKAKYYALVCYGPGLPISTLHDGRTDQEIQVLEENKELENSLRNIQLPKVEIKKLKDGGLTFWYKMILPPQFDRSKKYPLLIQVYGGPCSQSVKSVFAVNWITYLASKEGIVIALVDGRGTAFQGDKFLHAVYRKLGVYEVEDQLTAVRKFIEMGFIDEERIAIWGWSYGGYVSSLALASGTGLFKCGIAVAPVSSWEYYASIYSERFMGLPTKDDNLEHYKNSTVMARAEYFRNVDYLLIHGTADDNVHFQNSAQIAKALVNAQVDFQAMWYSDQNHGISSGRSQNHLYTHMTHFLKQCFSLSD
Procedure: as §2

[7] = target: T4, cynomolgus FAP (cFAP) (cynomolgus monkey); test: SPR (ProteOn XPR36), cFAP on GLC chip, MpA analyte, 1:1 Langmuir fit
T4 chain: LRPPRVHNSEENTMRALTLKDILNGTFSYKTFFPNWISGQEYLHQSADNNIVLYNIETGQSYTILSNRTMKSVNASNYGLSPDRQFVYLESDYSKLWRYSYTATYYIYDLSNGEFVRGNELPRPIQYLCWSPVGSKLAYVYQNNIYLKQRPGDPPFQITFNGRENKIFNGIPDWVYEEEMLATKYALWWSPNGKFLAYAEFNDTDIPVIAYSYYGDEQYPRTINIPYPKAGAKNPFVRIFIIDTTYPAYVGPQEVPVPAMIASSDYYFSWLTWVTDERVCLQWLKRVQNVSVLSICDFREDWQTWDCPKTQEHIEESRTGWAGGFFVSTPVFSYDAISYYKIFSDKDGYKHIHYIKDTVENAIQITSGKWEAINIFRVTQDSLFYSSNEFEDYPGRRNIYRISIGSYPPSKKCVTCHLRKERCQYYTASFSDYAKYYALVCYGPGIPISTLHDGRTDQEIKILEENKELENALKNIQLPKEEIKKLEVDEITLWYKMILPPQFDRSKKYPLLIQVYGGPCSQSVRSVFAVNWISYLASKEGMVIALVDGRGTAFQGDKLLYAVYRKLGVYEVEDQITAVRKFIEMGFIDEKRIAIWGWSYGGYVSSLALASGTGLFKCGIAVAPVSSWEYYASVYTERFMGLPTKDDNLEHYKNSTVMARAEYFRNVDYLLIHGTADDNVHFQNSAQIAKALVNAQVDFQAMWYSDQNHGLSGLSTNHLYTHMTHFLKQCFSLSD
Procedure: as §2

[8] = target: T1, biotinylated human 4-1BB (bio.h4-1BB); test: SPR (ProteOn XPR36), bio.h4-1BB on NLC chip, MpA analyte; mean of triplicate
Procedure: as §1

[9] = target: T5, biotinylated mouse 4-1BB (bio.m4-1BB) (mouse, UniProt P20334 24-187, limits assumed, biotinylated (site not stated)); test: SPR (ProteOn XPR36), bio.m4-1BB on NLC chip, MpA as analyte
T5 sequence (looked up): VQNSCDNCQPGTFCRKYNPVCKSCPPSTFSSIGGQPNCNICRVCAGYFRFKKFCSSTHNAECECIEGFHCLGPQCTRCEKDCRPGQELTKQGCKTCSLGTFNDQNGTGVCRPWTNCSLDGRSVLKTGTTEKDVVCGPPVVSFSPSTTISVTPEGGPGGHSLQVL
Procedure: as §1

[10] = target: mouse serum albumin (MSA) (mouse, UniProt P07724 25-608); test: SPR (ProteOn XPR36), MpA captured on bio.h4-1BB, MSA analyte, 1:1 Langmuir fit
mouse serum albumin (MSA), sequence (P07724 25-608 limits assumed): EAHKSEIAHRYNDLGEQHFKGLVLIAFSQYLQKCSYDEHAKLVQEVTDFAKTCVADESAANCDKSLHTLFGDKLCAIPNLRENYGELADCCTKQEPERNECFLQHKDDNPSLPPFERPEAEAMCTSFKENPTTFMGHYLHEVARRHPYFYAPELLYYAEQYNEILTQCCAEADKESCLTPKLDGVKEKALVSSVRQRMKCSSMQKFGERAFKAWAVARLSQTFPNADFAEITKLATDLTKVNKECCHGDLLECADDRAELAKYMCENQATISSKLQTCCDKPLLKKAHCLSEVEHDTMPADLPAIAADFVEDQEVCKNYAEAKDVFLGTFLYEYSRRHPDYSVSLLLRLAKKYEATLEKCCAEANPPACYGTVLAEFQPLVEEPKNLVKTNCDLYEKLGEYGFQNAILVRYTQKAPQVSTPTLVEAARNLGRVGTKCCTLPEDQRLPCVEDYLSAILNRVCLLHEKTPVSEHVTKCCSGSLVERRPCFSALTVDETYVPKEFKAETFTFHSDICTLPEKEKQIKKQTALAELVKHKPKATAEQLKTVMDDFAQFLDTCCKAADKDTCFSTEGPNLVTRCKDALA
Procedure: (§3) ProteOn setup for MpA binding to serum albumin of different species: SPR measurements were performed using a ProteOn XPR36 instrument (BioRad). The running buffer was PBS pH 7.4 containing 0.005% Tween 20® (PBST). First, bio.h4-1BB was coated on NLC chip (BioRad) to a level of 320 RU before […] MpA was immobilized for 180 s at constant flow of 30 μl/min to a level of 200 RU. The binding of the serum albumin to MpA was detected by applying HSA (human serum albumin), CSA (cynomolgus serum albumin) and MSA (mouse serum albumin) as titration with a 180 s association and 1800 s dissociation phase using a constant flow of 100 μl/min. HSA, CSA and MSA binding was measured serially and the bio.h4-1BB/MpA complex was regenerated each time with 10 mM glycine pH 2 and 124 mM H3P04. Thus, MpA had to be recoated after each regeneration step. The signals were double referenced against the running buffer (PBST) treated control lane of L1 and A6. The 1:1 Langmuir model was used for the fitting.

[11] = target: human serum albumin (HSA) (human, UniProt P02768 25-609); test: SPR (ProteOn XPR36), MpA captured on bio.h4-1BB, HSA analyte, 1:1 Langmuir fit
Procedure: as §3

[12] = target: cynomolgus serum albumin (CSA) (cynomolgus monkey, UniProt A2V9Z4 25-608); test: SPR (ProteOn XPR36), MpA captured on bio.h4-1BB, CSA analyte, 1:1 Langmuir fit
cynomolgus serum albumin (CSA), sequence (A2V9Z4 25-608 limits assumed): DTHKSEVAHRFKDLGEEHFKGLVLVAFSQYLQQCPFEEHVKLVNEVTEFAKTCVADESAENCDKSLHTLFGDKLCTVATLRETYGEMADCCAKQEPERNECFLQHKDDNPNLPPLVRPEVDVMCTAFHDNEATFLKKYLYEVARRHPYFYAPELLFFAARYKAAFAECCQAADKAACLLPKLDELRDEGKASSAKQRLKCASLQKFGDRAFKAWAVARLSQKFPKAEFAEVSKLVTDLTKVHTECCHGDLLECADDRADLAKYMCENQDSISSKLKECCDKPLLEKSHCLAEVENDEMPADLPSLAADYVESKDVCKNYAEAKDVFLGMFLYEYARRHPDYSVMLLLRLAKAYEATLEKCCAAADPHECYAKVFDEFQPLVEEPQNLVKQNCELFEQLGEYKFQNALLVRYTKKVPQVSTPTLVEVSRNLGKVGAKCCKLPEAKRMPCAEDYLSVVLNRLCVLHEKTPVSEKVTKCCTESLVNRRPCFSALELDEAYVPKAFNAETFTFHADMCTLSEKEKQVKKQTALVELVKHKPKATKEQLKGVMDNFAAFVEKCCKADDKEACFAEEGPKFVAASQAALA
Procedure: as §3

[13] = target: T2, human fibroblast activation protein …; test: SPR (ProteOn XPR36), hFAP immobilised on GLC chip, construct as analyte
Procedure: Assay set-up: Briefly, SPR measurements were performed using a ProteOn XPR36 instrument (BioRad) as described above. Biotinylated human and cynomolgus 4-1BB and human FAP were immobilized either directly or indirectly via NeutrAvidin (˜6000 RU pre-coated) on a GLC chip to reach 600 RU, 700 RU and 2000 RU, respectively. The interaction of FAP-4-1BB bispecific constructs to the coated targets was measured by injecting the bispecific constructs in a serial dilution of 50, 16.7, 5.6, 1.9 and 0.6 nM with an association of 120 s and dissociation of 1800 s using a constant flow rate of 30 μl/min. Targets were regenerated between the individual measurements using 10 mM glycine pH 2 and 124 mM H₃PO₄. The signals were double referenced against the running buffer (PBST) treated control lane.
Target sequence in this assay (Q12884 26-760 limits assumed): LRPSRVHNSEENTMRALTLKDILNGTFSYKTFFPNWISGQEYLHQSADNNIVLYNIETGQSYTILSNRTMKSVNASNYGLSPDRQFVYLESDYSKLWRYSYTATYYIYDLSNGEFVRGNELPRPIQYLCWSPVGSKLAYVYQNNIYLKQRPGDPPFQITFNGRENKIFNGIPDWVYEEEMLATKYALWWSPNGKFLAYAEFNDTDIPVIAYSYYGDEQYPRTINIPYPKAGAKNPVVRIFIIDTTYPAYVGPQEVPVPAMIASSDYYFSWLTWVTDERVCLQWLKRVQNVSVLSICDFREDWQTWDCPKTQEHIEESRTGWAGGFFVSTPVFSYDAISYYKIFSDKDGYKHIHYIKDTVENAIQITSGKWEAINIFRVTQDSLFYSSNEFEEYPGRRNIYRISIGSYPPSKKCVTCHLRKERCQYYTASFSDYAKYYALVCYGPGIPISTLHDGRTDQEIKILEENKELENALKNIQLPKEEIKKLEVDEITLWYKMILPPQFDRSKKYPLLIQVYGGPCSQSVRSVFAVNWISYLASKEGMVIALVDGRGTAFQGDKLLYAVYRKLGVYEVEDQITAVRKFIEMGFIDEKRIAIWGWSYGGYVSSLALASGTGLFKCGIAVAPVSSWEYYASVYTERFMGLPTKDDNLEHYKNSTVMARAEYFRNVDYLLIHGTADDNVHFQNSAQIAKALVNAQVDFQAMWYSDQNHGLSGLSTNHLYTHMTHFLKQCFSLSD

[14] = target: T1, biotinylated human 4-1BB (bio.h4-1BB); test: SPR (ProteOn XPR36), biotinylated human 4-1BB immobilised, construct as analyte

human 4-1BB on transfected HT1080 NF-kB-luciferase reporter cells, sequence (Q07011 24-255 limits assumed): as the sequence (Q07011 24-255 limits assumed) above

EC50, NF-κB-luciferase reporter in h4-1BB-HT1080 cells with CHO-hFAP cells [1]: 0.41 nM | Kd [2]: 0.013 nM | Kd [3]: 0.4 nM | koff [3]: 0.00013 s⁻¹ | kon [3]: 470000 M⁻¹ s⁻¹ | EC50, IFNγ secretion of human CD8 T cells (plate-coated hFAP) [4]: 1 to 2 nM | EC50, IFNγ production by primary human CD8 T cells (anti-CD3 plus plate-coated hFAP) [5]: 1.17 nM | Kd [7]: 0.8 nM | koff [7]: 0.00013 s⁻¹ | kon [7]: 170000 M⁻¹ s⁻¹ | koff [8]: 3.2e-05 s⁻¹ | kon [8]: 2.6e+06 M⁻¹ s⁻¹ | Kd [10]: 38 nM | koff [10]: 0.038 s⁻¹ | kon [10]: 1e+06 M⁻¹ s⁻¹ | Kd [11]: 8 nM | koff [11]: 0.012 s⁻¹ | kon [11]: 1.5e+06 M⁻¹ s⁻¹ | Kd [12]: 67 nM | koff [12]: 0.075 s⁻¹ | kon [12]: 1.1e+06 M⁻¹ s⁻¹
B1: Multispecific binding protein A (MpA) (designed binder)
chain: GSDLGKKLLEAARAGQDDEVRELLKAGADVNAKDYFSHTPLHLAARNGHLKIVEVLLKAGADVNAKDFAGKTPLHLAAADGHLEIVEVLLKAGADVNAQDIFGKTPADIAADAGHEDIAEVLQKAAGSPTPTPTTPTPTPTTPTPTPTGSDLGKKLLEAARAGQDDEVRELLKAGADVNAKDVLGWTPLHLAAFEGHLEIVEVLLKAGADVNAKDKKGWTPLQLAARTGHLEIVEVLLKAGADVNAKDHIGATPLHLAAWQGHPEIVEVLLKAGADVNAQDKSGKTPADLAADAGHEDIAEVLQKAAGSPTPTPTTPTPTPTTPTPTPTGSDLGQKLLKAAQEGQDDEVRELLKAGADVNAKDLRGITPLHVAAWQGHLEIVEVLLKAGADVNAKDSKGETPLHLAAFRGHLEIVEVLLKAGADVNAQDQQGETPADLAALAGHVDIAEVLQKAAGSPTPTPTTPTPTPTTPTPTPTGSDLGQKLLKAAQEGQDDEVRELLKAGADVNAKDLRGITPLHVAAWQGHLEIVEVLLKAGADVNAKDSKGETPLHLAAFRGHLEIVEVLLKAGADVNAQDQQGETPADLAALAGHVDIAEVLQKAAGSPTPTPTTPTPTPTTPTPTPTGSDLGKKLLEAARAGQDDEVRELLKAGADVNAKDYFSHTPLHLAARNGHLKIVEVLLKAGADVNAKDFAGKTPLHLAAADGHLEIVEVLLKAGADVNAQDIFGKTPADIAADAGHEDIAEVLQKAA
notes: also called HFBBH
binding result [6]: no binding (tested: 50 nM highest concentration injected) | binding result [9]: no binding (tested: 30 nM highest concentration injected)

Kd [13]: 0.22 nM
B2: bispecific construct #50 (designed binder)
chain: MRGSHHHHHHGSDLGEKLLVAALYGQDDEVRILLAAGADVNAKDQWGLTPLHKAALQGHLEIVEVLLKAGADVNAKDERGHTPLHWAARFGHLEIVEVLLKAGADVNAQDQKGYTPADLAALWGHEDIAEVLQKAAGSPTPTPTTPTPTPTTPTPTPTGSDLGKKLLEAARAGQDDEVRELLKAGADVNAKDKDGYTPLHLAAREGHLEIVEVLLKAGADVNAKDKDGYTPLHLAAREGHLEIVEVLLKAGADVNAQDKSGKTPADLAADAGHEDIAEVLQKAA
notes: also called negative control construct #50
binding result [14]: no binding (tested: 50 nM highest concentration injected)

Source: patent US20240190999A1 (Molecular Partners, published 2024)
